The values that follow come from patent US20250353906A1.

The experiment addresses human TNFα (human) (UniProt P01375). The experiment in a line: cell-based or functional assay.

human TNFα (human), sequence (P01375 77-233 limits assumed): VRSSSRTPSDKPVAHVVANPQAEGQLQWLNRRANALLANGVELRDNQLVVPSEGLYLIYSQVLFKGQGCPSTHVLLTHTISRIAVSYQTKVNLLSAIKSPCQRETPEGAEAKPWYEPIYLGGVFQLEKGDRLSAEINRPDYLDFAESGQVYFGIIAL

The substance Etanercept (PRO078) (Fc fusion) gave an IC50 (nM, replicate 2), inhibition of TNFα signaling in HEK-BLUE TNFα cells of 0.07 nM.
